The values below are quoted from earlier work in patent US20230042670A1, “Hypoparathyroidism Treatment” (Ascendis Pharma Bone Diseases A/S, priority 2020, published 2023).

The subject of data set [1] is patients with hypoparathyroidism.
The conditions of data set [2]: in vivo.

By half-life is commonly meant how long it takes for the measured level to halve. Consider “PTH(1-84): short acting PTH molecule, approved drug for hypoparathyroidism; PTH 1-84, SEQ ID NO: 1”, for which the “clinical episodes of hypercalcemia” value in data set [1] (on treatment versus placebo, 24 weeks) is “numerical increase”. Besides, in data set [1] (versus placebo, 24 weeks), the “clinical episodes of hypocalcemia” value was “no significant difference” and the urinary calcium excretion entry was “no significant difference”. Besides, the “patients achieving the primary endpoint (50% or greater reduction in daily oral calcium and active vitamin D while maintaining serum calcium)” value in data set [1] (week 24, 50 μg per day titrated up to 100 μg) was 53%. Further, in data set [2], the half-life was roughly 3 h.
